The results in this text go back to article PMC4222529 (Biochemistry, 2014).

No end group written: not given here. *: point of attachment. 5FAM = O=C1OC2(c3ccc(O)cc3Oc3cc(O)ccc32)c2ccc(C(=O)*)cc21

B1: 5′FAM-IKKβ_(KK/RR) (peptide, UniProt O14920 701-745, looked up)
chain: 5FAM-PARRSEELVAEAHNLCTLLENAIQDTVREQDQSFTALDWSWLQTE
modifications: not fully specified
B2: NEMOw (domain or fragment)
chain: GSWEQGAPETLQRCLEENQELRDAIRQSNQILRERCEELLHFQASQREEKEFLMCKFQEARKLVERLGLEKL

The target of data set [1] is 5′FAM-IKKβ_(KK/RR) (UniProt O14920). The data set can be described thus: fluorescence polarisation. (Fluorescence polarisation rises when a labelled molecule tumbles more slowly, as on binding a larger partner.)
Data set [2] addresses NEMOwCcc (UniProt Q9Y6K9). The data set can be described thus: non-reducing SDS-PAGE.
The target of data set [3] is NEMOwNcc (UniProt Q9Y6K9). The data set can be described thus: non-reducing SDS-PAGE.
Data set [4] concerns the target T1, GST-NEMO(1–196) (UniProt Q9Y6K9 1-196). The data set can be described thus: fluorescence polarisation.
The target of data set [5] is B2. The data set can be described thus: fluorescence polarisation.
For data set [6], the target named is T1, GST-NEMO(1–196). The data set can be described thus: fluorescence polarisation. The source holds these as a separate data set.
Data set [7] concerns the molecule itself. The data set can be described thus: non-reducing SDS-PAGE.
The target of data set [8] is B1. The data set can be described thus: fluorescence polarisation.

Take “NEMOwCcc (from UniProt Q9Y6K9 44-112) (designed binder)”: in data set [1], the Kd (in general, the equilibrium constant for the complex coming apart) is 150 nM. Besides, in data set [2], the stoichiometry N – broadly, the number of molecules, sites or subunits per partner or assembly – was determined as 2.
In the case of “NEMOwNcc (from UniProt Q9Y6K9 51-112) (designed binder)”, the Kd in data set [1] is 980 nM. In data set [3], this molecule gave a stoichiometry N of 2.
Consider PARRSEELVAEAHNLCTLLENAIQDTVREQDQSFTALDWSWLQTE (peptide, UniProt O14920 701-745, looked up) [IKKβ_(KK/RR)], for which, in data set [4], the IC50 (as a rule, the concentration that inhibits the measured activity by half) was found to be 167 ± 3 nM.
B1: the values for the Kd in data set [5] and in data set [6] were around 10000 nM and 168 ± 4 nM, respectively.
In the case of B2, in data set [7], the “stoichiometry N” value was 2.

B3: NEMOwDcc (designed binder)
chain: GSWSVKELEDKNEELLSEIAHLKNEVARLKKLLQRCLEENQELRDAIRQSNQILRERCEELLHFQASQREEKEFLMCKFQEARKLVERLGLEKLELEDKNEELLSEIAHLKNEVARLKKLVGER
In turn, B3 gave a Kd in data set [8] of 114 ± 3 nM.
